From patent US20090104147A1

Assays:
[1] = target: porcine sialoadhesin (pig) (UniProt A7LCJ3); assay: cell-based or functional assay
[2] = target: recombinant sialoadhesin expressed on CHO cells (CHO-Sn); assay: cell-based or functional assay

**Q.** How did the % Living cells, primary porcine macrophages, conjugate concentration 0.3*10^-6 [1] turn out when mAb 41D3/saporin conjugate was run?
**A.** 30.4%

**Q.** What about the % Living cells, primary porcine macrophages, conjugate concentration 10^-7 [1] of the same substance?
**A.** 29.3%

**Q.** What about the MTT assay OD value, primary porcine macrophages, column head 10 [1] of the same substance?
**A.** 0.537 OD

**Q.** And the MTT assay OD value, primary porcine macrophages, column head 30 [1]?
**A.** 0.541 OD

**Q.** What about the % Living cells, CHO-Sn cells, conjugate concentration 0.1*10^-6 [2] of the same substance?
**A.** 64.4%

**Q.** And the % Living cells, CHO-Sn cells, conjugate concentration 0.25*10^-6 [2]?
**A.** 57.1%

**Q.** What about the % Living cells, CHO-Sn cells, conjugate concentration 0.5*10^-6 [2] of the same substance?
**A.** 64.2%

**Q.** And the % Living cells, CHO-Sn cells, conjugate concentration 10^-7 [2]?
**A.** 63%

**Q.** And the MTT assay OD value, CHO-Sn cells, 25 [2]?
**A.** 1.35 OD

**Q.** What about the MTT assay OD value, CHO-Sn cells, column head 6.25 [2] of the same substance?
**A.** 1.45 OD

**Q.** And the MTT assay OD value, CHO-Sn cells, column head 12.5 [2]?
**A.** 1.47 OD

**Q.** What about the MTT assay OD value, CHO-Sn cells, column head 50 [2] of the same substance?
**A.** 1.47 OD
